Measurements: paper PMC11718114 (2025)

Assays:
[1] = molecular target: PI3Kγ(144-1102)-His6 (human, UniProt P48736 144-1102); assay: ITC
[2] = molecular target: PI3Kα: p110α(2-1068) W1057A/I1058A/F1059A + p85(322-600) (human, UniProt P42336 2-1068; P27986 322-600, W1057A | I1058A | F1059A); assay: ITC

Chain of PI3Kγ(144-1102)-His6 (P48736 144-1102): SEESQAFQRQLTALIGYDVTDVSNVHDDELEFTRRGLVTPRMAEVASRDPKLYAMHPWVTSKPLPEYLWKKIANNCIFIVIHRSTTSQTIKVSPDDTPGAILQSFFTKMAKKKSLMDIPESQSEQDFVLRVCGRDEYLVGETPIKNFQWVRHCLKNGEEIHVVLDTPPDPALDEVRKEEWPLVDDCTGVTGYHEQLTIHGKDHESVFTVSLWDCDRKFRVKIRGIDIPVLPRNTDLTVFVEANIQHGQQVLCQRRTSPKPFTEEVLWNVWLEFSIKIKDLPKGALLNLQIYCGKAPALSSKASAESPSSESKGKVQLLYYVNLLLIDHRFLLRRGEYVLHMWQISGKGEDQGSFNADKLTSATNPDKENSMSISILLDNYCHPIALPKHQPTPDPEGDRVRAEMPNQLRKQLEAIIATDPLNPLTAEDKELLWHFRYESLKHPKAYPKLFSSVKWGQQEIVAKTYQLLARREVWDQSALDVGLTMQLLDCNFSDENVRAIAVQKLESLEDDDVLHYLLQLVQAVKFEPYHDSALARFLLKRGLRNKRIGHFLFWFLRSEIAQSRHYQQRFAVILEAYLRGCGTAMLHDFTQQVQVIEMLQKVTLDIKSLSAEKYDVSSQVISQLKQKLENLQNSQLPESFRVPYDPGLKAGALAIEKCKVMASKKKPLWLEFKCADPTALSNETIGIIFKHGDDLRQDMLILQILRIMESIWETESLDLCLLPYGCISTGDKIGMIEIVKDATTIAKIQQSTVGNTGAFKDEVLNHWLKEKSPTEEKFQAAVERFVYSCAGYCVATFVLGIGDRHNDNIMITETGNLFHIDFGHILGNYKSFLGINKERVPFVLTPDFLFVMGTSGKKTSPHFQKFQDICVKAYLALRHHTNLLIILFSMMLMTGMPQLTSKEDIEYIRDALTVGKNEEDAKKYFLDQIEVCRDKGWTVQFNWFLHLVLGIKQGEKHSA

Binder	Kd [1] [µM]	Kd [2] [µM]
RRAS2 (wild type) (domain or fragment) MAAAGWRDGSGQEKYRLVVVGGGGVGKSALTIQFIQSYFVTDYDPTIEDSYTKQCVIDDRAARLDILDTAGQEEFGAMREQYMRTGEGFLLVFSVTDRGSFEEIYKFQRQILRVKDRDEFPMILIGNKADLDHQRQVTQEEGQQLARQLKVTYMEASAKIRMNVDQAFHELVRVIRKFQ	5.5	
RRAS(22-192) (domain or fragment) GDPPPSETHKLVVVGGGGVGKSALTIQFIQSYFVSDYDPTIEDSYTKICSVDGIPARLDILDTAGQEEFGAMREQYMRAGHGFLLVFAINDRQSFNEVGKLFTQILRVKDRDDFPVVLVGNKADLESQRQVPRSEASAFGASHHVAYFEASAKLRLNVDEAFEQLVRAVRK		27.6
